Results published in patent US20190194268A1 (DONALD DANFORTH PLANT SCIENCE CENTER, published 2019).
Values joined by “and” are separate entries in the source; they are usually repeats but may differ in a detail not shown here. Equal values may be shown once. “Also recorded” adds a separate entry of the source. Read-outs that look alike come from different tables or passages of the source.

Experiments:
Verticillium dahliae = conditions: low salt in vitro assay conditions; U.S. Pat. No. 6,916,970; cited from earlier work
Fusarium culmorum = conditions: low salt in vitro assay conditions; U.S. Pat. No. 6,916,970; cited from earlier work
F. graminearum PH-1 = format: cell-based, Fusarium graminearum
[1] = protein-lipid overlay (PIP Strips); format: binding
Protocol: (§1) To test the binding properties of MtDefS peptide A (MtDefS Peptide A; SEQ ID NO:4) and MtDef5FL1 (SEQ ID NO:7), a protein-lipid overlay experiment was performed using PIP Strips™ (2×6 cm nitrocellulose membranes) that are spotted with 100 pmol of various biologically active lipids (Echelon Biosciences, Salt Lake City, Utah). Briefly, lipid strips were blocked with 10 mL of blocking buffer, PBS-T/3% fat free BSA for 12-16 h at 4° C. with gentle agitation. The blocking buffer was discarded and the lipid strips were incubated with 5 mL of PBS-T/3% fat free BSA containing 1 μg/ml of MtDef5 peptide A or MtDef5FL1 for 60 min at 4° C. After hybridization, protein solution was discarded and the strips were then washed with PBS-T three times with gentle agitation for 20 minutes each at room temperature. The protein-lipid interactions were detected by subsequently incubating lipid strips with rabbit anti-MtDef5 peptide A derived synthetic peptide (1 μg/ml) diluted in 5 mL of blocking buffer with gentle agitation for 60 min at 4° C. The lipid strips were washed with PBS-T two times with gentle agitation, for 15 minutes each wash, at room temperature. HRP-conjugated Goat Anti-Rabbit IgG secondary antibody (Thermo Scientific, Cat no: SA 1-9510) diluted 1:4000 in blocking buffer was added to the lipid strips and incubated for 60 min at 4° C. After two washes with PBS-T, chemiluminescence was detected using SuperSignal® West Femto Maximum Sensitivity substrate kit (Thermo Scientific, Cat no: 34094) following the manufacturer's protocol.
(§2) To test the binding properties of MtDef5 and its γ-core motif variants, a protein-lipid overlay experiment was performed using PIP Strips™ (2×6 cm nitrocellulose membranes) that are spotted with 100 pmol of various biologically active lipids, respectively (Echelon Biosciences, Salt Lake City, Utah). To determine relative degree of the binding of MtDef5, PIP Array (Echelon Biosciences, UT) pre-spotted with concentration gradient of various phosphoinositides was used. Briefly, lipid strips and arrays were blocked with 10 mL of blocking buffer, PBS-T/3% fat free BSA for 12-16 h at 4° C. with gentle agitation. The blocking buffer was discarded and the lipid strips and arrays were incubated with 5 mL of PBS-T/3% fat free BSA, containing 3 μg/ml of MtDef5 or its variants for 60 min at 4° C. After hybridization, protein solution was discarded and the strips and arrays were then washed with PBS-T three times with gentle agitation for 20 minutes each at room temperature. The protein-lipid interactions were detected by subsequently incubating lipid strips and arrays with rabbit anti-MtDef5 derived synthetic peptide (1 μg/ml) antibody diluted in 5 mL of blocking buffer with gentle agitation for 60 min at 4° C. The lipid strips and arrays were washed with PBS-T two times with gentle agitation, for 15 minutes each wash, at room temperature. HRP-conjugated Goat Anti-Rabbit IgG secondary antibody (Thermo Scientific, Cat no: SA 1-9510) diluted 1:4000 in blocking buffer was added to the lipid strips and arrays and incubated for 60 min at 4° C. After two washes with PBS-T, chemiluminescence was detected using SuperSignal® West Femto Maximum Sensitivity substrate kit (Thermo Scientific, Cat no: 34094) following the manufacturer's protocol.

[2] = protein-lipid overlay (PIP Strips, PIP Array); format: binding; conditions: for binding to PI3P, PI4P and PI5P: Example 2, PIP Strips, 1 μg/ml protein, FIG. 9
Protocol: as §1
as §2, with “After hybridization, protein solution was discarded and the strips and arrays were then washed with PBS-T three times with gentle agitation for 20 minutes each at room temperature.” left out, “The lipid strips and arrays were washed with PBS-T two times with gentle agitation, for 15 minutes each wash, at room temperature. HRP-conjugated Goat Anti-Rabbit IgG secondary antibody (Thermo Scientific, Cat no: SA 1-9510) diluted 1:4000 in blocking buffer was added to the lipid strips and arrays and incubated for 60 min at 4° C.” left out

[3] = target: the molecule itself; assay: BS3 cross-linking with PIP, SDS-PAGE; self-oligomerization
Protocol: (§3) To determine the oligomeric status of MtDef5FL1 and its γ-core motif variants, protein cross-linking experiments were performed in the presence or absence of PIPs cross-linked with bis[sulfosuccinimidyl] suberate (BS3) substrate. Briefly, MtDef5 and its γ-core motif variants, prepared in 1× PBS buffer, at 1.5 mg/ml (5 μl) were incubated with 2.73 mM PI(3)P or PI(4)P or PI(5)P (1.5 μl) at room temperature for 30 min. The cross-linking reaction was initiated by addition of freshly dissolved water soluble 12.5 mM BS3 (0.5 μl) and incubated for 30 min at room temperature. After crosslinking, samples were reduced with 100 mM dithiothreitol (DTT) and separated on a 4-20% (Bio-Rad, TGX Stain-Free™ precast gels) SDS-PAGE. The oligomerization pattern was visualized using a Bio-Rad ChemiDoc XRS+ system.

[4] = protein cross-linking (BS3) oligomerization assay; conditions: SDS-PAGE, FIG. 19, FIG. 23
Protocol: as §3

Neurospora crassa = format: cell-based
[5] = tested on: Colletotrichum higginsianum; format: cell-based; conditions: Example 6, FIG. 15
F. virguliforme = format: cell-based, Fusarium virguliforme
[6] = tested on: F. graminearum conidia and germlings; format: cell-based, Fusarium graminearum; conditions: DyLight550-labeled, 3μM, 3 hr, FIG. 17
F. graminearum = format: cell-based, Fusarium graminearum
Fusarium virguliforme = format: cell-based
[7] = phospholipid binding / protein-lipid overlay; conditions: Example 6, PIP strip, 3 μg/ml protein, FIG. 18A
Protocol: as §2, with “After hybridization, protein solution was discarded and the strips and arrays were then washed with PBS-T three times with gentle agitation for 20 minutes each at room temperature.” left out, “The lipid strips and arrays were washed with PBS-T two times with gentle agitation, for 15 minutes each wash, at room temperature. HRP-conjugated Goat Anti-Rabbit IgG secondary antibody (Thermo Scientific, Cat no: SA 1-9510) diluted 1:4000 in blocking buffer was added to the lipid strips and arrays and incubated for 60 min at 4° C.” left out

N. crassa = format: cell-based, Neurospora crassa
Alternaria brassicicola = format: cell-based; conditions: Example 6, FIG. 15
Botrytis cinerea = format: cell-based; conditions: Example 6, FIG. 15
[8] = Example 6, FIG. 14, read-out: IC50 value against F. graminearum
[9] = Example 2, PIP Strips, 1 μg/ml protein, FIG. 9
[10] = activity of the indicated protein against Fusarium graminareum, Table 1, read-out: IC50 (nm)
[11] = Example 6, PIP strip, 3 μg/ml protein, FIG. 18A

MsDef1: Alfalfa (Medicago sativa) Defensin 1, SEQ ID NO:79 (RTCENLADKYRGPCFSGCDTHCTTKENAVSGRCRDDFRCWCTKRC; listed as Medicago sativa)
IC50, Verticillium dahliae growth (Verticillium dahliae): 4 µg/mL | IC50, Fusarium culmorum growth (Fusarium culmorum): 1 µg/mL

MtDef4: Medicago truncatula defensin peptide, SEQ ID NO:76 (RTCESQSHKFKGPCASDHNCASVCQTERFSGGHCRGFRRRCFCTTHC; listed as Medicago truncatula) [reference compound]
minimal inhibitory concentration (MIC or IC100) against F. graminearum (F. graminearum PH-1; Example 6, FIG. 14): 6 µM | IC50 (F. graminearum PH-1; [8]): 750 to 1500 nM

MtDef5A: single 50-amino acid MtDef5 defensin peptide A, SEQ ID NO:4 (KLCQKRSTTWSGPCLNTGNCKRQCINVEHATFGACHRQGFGFACFCYKKC; listed as Medicago truncatula)
binding to PI3,4P2 [1, 9]: also binds | binding to PI3,5P2 [1, 9]: also binds | binding to PI4,5P2 [1, 9]: also binds | binding to PS [1, 9]: fails to bind | IC50 (F. graminearum PH-1; [10]): 500 to 750 nM | binding to PI3P, PI4P and PI5P [2]: much less affinity than MtDef5FL1

NaD1: Nicotiana alata defensin peptide, SEQ ID NO:81 (RECKTESNTFPGICITKPPCRKACISEKFTDGHCSKILRRCLCTKPC; listed as Nicotiana alata) [reference compound]
IC50 (F. graminearum PH-1; [10]): 500 nM

TPP3: Tomato (Solanum lycopersicum) defensin peptide, SEQ ID NO:83 (QQICKAPSQTFPGLCFMDSSCRKYCIKEKFTGGHCSKLQRKCLCTKPC; listed as Solanum lycopersicum) [reference compound]
IC50 (F. graminearum PH-1; [10]): 500 nM

B1: MtDef5FL1_V1 (other)
chain: KLCQAASTTWSGPCLNTGNCKRQCINVEHATFGACAAQGFGFACFCYKKCAPKKVEPKLCEAASKTWSGPCLISGNCKRQCINVEHATSGACAAQGIGFACFCKKKC
notes: Alanine variant expressed in P. pastoris; also called MtDef5FL1 γ-core motif variant V1
binding result [3]: no binding (tested: 1.5 mg/ml protein) | oligomerization in presence of PIPs [4]: no formation of higher order oligomers

B2: MtDef5FL1: Medicago truncatula protein with MtDef5 defensin peptides A and B connected by a 7-amino acid linker; SEQ ID NO:7, expressed in Pichia (protein, listed as Medicago truncatula)
chain: CQKRSTTWSGPCLNTGNCKRQCINVEHATFGACHRQGFGFACFCYKKCAPKKVEPKLCERRSKTWSGPCLISGNCKRQCINVEHATSGACHRQGIGFACFCKKKC
IC100 value against N. crassa (Neurospora crassa): 0.18 µM | concentration inhibiting conidial germination completely (100% growth inhibition) (Neurospora crassa): 0.18 µM | minimal inhibitory concentration (MIC or IC100) against Neurospora crassa (Neurospora crassa): 0.7 to 0.75 µM and 0.75 µM | IC50 (Neurospora crassa; read-out: IC50 value against N. crassa): 90 nM | IC50 (Neurospora crassa; read-out: IC50 value against Neurospora crassa): 250 to 300 nM | antifungal activity against Colletotrichum higginsianum [5]: potent antifungal activity | SG uptake (plasma membrane permeabilization) (F. virguliforme): SG uptake was observed | internalization and localization in fungal cells [6]: is internalized by fungal cells; also recorded: diffuse localization within the cytoplasm | binding to PI3,4P2 [1, 9]: binds to a lesser extent | binding to PI3,5P2 [1, 9]: binds to a lesser extent | binding to PI4,5P2 [1, 9]: binds to a lesser extent | binding to PS [1, 9]: binding to PS, is generated | binding to PI3,5P2 [1, 11]: binds to a lesser extent | binding to PI4,5P2 [1, 11]: binds to a lesser extent | binding to phosphatidylserine (PS) [1, 11]: binds to a lesser extent | oligomerization in presence of PIPs [4]: formed higher-order oligomers only in the presence of PIPs; also recorded: forms higher order oligomers in presence of PIPs | SG uptake (plasma membrane permeabilization) (F. graminearum; 0.180 μM (IC100) protein + 0.5 μm SG, 2 hrs, FIG. 6): SG uptake was observed | SG uptake in hyphal cells (F. graminearum; 0.75 μM MtDef5FL1, 3 hr, FIG. 16): SG uptake was visible | IC100 value against F. virguliforme (Fusarium virguliforme): 0.18 µM | antifungal activity against F. virguliforme (Fusarium virguliforme): potent antifungal activity | concentration inhibiting conidial germination completely (100% growth inhibition) (Fusarium virguliforme): 0.18 µM | IC50 (Fusarium virguliforme; read-out: IC50 value against F. virguliforme): 90 nM | IC100 value against F. graminearum (F. graminearum PH-1; Example 1, FIG. 5A): 0.18 µM | IC50 (F. graminearum PH-1; Example 1, FIG. 5A, read-out: IC50 value against F. graminearum): 90 nM | minimal inhibitory concentration (MIC or IC100) against F. graminearum (F. graminearum PH-1; Example 6, FIG. 14): 0.75 µM | minimal inhibitory concentration (MIC or IC100) against F. graminearum (F. graminearum PH-1; Example 6, FIG. 14, listed as MtDef5): 0.7 to 0.75 µM | IC50 (F. graminearum PH-1; [8]): 250 to 300 nM | IC50 (F. graminearum PH-1; [10]): 90 nM | potency relative to MtDef4, based on the MIC values (F. graminearum PH-1; against F. graminearum): 3 to 5 fold | concentration inhibiting conidial germination completely (100% growth inhibition) (F. graminearum PH-1; microscopic observation after 14-16 hr incubation, FIG. 5B): 0.18 µM | binding to phoshatidic acid (PA) [7]: binds to a lesser extent | SG uptake (plasma membrane permeabilization) (N. crassa): SG uptake was observed | SG uptake in hyphal cells (N. crassa): SG uptake was visible | antifungal activity against Alternaria brassicicola (Alternaria brassicicola): potent antifungal activity | antifungal activity against Botrytis cinerea (Bci) (Botrytis cinerea): potent antifungal activity | binding to PI3P, PI4P and PI5P [2]: strongly binds; also recorded: significantly increases its binding affinity | binding to PI3P, PI4P and PI5P (PIPs) ([2]; Example 6, PIP strip, 3 μg/ml protein, FIG. 18A, FIG. 22): strongly binds | amount of PIP per spot at which binding to all three PIPs was observed ([2]; PIP Array, FIG. 18B): ≤ 12.5 pmoles per spot
